Results taken from patent US20060074222.

Tested on: Pin1 R14A (SEQ ID NO:2)

With phosphokinase A (PKA) the “MALDI-TOF of partial tryptic digest, mass gain of peptide 69-74” value was “the peak corresponding to residues 69-74 of Pin1 gains ~80 Daltons after treatment with PKA” and the “proline isomerase activity (protease-coupled assay, rate constant of isomerization)” value was “phosphorylation of Pin1 R14A at position 71 by PKA inhibits the ability of the enzyme to isomerizes substrate”.
